Data taken from US20240261333A1, “NOVEL TARGETS FOR ENHANCING ANTI-TUMOR IMMUNITY” (THE BROAD INSTITUTE, INC., priority 2021, published 2024).

Columns and labels:
Experiment in all cases: co-IP with IgG control, lysate of N-FLAG B3GNT2 cells, mass spectrometry
[1] = molecular target: ARPC1B (human) (UniProt O15143)
[2] = molecular target: CLTC (human) (UniProt Q00610)
[3] = molecular target: COPA (human) (UniProt P53621)
[4] = molecular target: CPSF7 (human) (UniProt Q8N684)
[5] = molecular target: CPT1A (human) (UniProt P50416)
[6] = molecular target: DDX17 (human) (UniProt Q92841)
[7] = molecular target: DDX3X (human) (UniProt O00571)
[8] = molecular target: HBB (human) (UniProt P68871)
[9] = molecular target: JUP (human) (UniProt P14923)
[10] = molecular target: LAMC1 (human) (UniProt P11047)
[11] = molecular target: LUC7L3 (human) (UniProt O95232)
[12] = molecular target: MMP14 (human) (UniProt P50281)
[13] = molecular target: NAP1L1 (human) (UniProt P55209)
[14] = molecular target: P0AA25.2 [thioredoxin: P0AA25]
[15] = molecular target: P4HA2 (human) (UniProt O15460)
[16] = molecular target: PLOD1 (human) (UniProt Q02809)
[17] = molecular target: PRRC2C (human) (UniProt Q9Y520)
[18] = molecular target: PSMB5 (human) (UniProt P28074)
[19] = molecular target: PUF60 (human) (UniProt Q9UHX1)
[20] = molecular target: PURA (human) (UniProt Q00577)
[21] = molecular target: RBM14 (human) (UniProt Q96PK6)
[22] = molecular target: RPL17 (human) (UniProt P18621)
[23] = molecular target: RPL6 (human) (UniProt Q02878)
[24] = molecular target: RPL7A (human) (UniProt P62424)
[25] = molecular target: RPS20 (human) (UniProt P60866)
[26] = molecular target: RPS24 (human) (UniProt P62847)
[27] = molecular target: RUVBL2 (human) (UniProt Q9Y230)
[28] = molecular target: SBSN (human) (UniProt Q6UWP8)
[29] = molecular target: SPARC (human) (UniProt P09486)
[30] = molecular target: SRSF6 (human) (UniProt Q13247)
[31] = molecular target: TGM1 (human) (UniProt P22735)
[32] = molecular target: TM9SF1 (human) (UniProt O15321)
[33] = molecular target: TPM2 (human) (UniProt P07951)
[34] = molecular target: TTC13 (human) (UniProt Q8NBP0)
[35] = molecular target: UniProt P01837.1
[36] = molecular target: XPO1 (human) (UniProt O14980)
[37] = molecular target: XPOT (human) (UniProt O43592)

Sequence of RBM14 (human) (Q96PK6 whole entry): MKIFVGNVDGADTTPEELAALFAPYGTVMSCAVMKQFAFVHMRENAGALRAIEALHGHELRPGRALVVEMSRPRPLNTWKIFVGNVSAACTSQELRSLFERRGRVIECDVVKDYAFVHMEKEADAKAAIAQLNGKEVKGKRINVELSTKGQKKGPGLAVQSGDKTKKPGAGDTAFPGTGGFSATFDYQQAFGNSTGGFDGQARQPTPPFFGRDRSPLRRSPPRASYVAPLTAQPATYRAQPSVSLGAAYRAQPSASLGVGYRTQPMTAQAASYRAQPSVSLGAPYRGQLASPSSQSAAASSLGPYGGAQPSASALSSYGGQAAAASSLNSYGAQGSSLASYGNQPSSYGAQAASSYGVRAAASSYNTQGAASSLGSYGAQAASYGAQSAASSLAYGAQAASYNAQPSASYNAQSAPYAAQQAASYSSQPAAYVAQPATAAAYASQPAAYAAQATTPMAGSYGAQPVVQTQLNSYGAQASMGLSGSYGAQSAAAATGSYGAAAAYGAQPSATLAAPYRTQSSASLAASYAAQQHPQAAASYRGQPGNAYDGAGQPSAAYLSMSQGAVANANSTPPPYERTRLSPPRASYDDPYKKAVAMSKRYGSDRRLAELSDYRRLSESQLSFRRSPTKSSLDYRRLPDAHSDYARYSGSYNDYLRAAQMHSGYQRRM
Sequence of PURA (human) (Q00577 2-322 limits assumed): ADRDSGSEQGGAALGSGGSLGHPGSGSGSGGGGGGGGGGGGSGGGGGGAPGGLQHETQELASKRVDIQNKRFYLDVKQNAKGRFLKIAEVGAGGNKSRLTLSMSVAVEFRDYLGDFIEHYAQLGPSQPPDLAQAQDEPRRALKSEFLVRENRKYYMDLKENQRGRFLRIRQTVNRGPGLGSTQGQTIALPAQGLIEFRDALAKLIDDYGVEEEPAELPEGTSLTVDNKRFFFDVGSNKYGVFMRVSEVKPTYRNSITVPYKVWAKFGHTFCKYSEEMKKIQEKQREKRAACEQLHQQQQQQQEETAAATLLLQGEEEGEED
Sequence of CPT1A (human) (P50416 other isoform, or with tags, fused parts or gaps limits assumed): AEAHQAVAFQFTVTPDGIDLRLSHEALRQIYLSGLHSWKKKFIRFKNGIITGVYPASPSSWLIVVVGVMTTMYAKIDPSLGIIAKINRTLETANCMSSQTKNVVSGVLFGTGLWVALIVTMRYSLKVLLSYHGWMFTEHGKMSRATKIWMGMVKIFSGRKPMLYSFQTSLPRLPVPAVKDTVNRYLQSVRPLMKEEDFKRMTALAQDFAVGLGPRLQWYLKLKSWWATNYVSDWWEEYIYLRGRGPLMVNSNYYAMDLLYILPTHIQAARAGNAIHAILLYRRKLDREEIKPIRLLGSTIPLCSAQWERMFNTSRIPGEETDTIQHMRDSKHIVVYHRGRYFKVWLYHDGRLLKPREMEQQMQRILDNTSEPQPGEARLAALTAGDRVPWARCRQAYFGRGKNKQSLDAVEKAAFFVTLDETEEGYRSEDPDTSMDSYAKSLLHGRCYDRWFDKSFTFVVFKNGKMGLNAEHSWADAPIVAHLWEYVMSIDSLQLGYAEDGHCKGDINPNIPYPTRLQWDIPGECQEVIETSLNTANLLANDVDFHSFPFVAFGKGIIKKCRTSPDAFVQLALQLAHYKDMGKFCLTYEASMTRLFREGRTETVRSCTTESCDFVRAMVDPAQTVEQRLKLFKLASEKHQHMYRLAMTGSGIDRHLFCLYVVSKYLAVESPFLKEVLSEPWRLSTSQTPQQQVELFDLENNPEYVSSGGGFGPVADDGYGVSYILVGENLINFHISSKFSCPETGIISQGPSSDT
Sequence of HBB (human) (P68871 2-147 limits assumed): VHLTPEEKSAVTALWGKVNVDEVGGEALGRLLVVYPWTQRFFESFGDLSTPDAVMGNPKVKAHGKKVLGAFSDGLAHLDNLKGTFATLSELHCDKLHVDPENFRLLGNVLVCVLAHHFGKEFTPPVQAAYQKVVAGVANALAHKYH
Sequence of PLOD1 (human) (Q02809 19-727 limits assumed): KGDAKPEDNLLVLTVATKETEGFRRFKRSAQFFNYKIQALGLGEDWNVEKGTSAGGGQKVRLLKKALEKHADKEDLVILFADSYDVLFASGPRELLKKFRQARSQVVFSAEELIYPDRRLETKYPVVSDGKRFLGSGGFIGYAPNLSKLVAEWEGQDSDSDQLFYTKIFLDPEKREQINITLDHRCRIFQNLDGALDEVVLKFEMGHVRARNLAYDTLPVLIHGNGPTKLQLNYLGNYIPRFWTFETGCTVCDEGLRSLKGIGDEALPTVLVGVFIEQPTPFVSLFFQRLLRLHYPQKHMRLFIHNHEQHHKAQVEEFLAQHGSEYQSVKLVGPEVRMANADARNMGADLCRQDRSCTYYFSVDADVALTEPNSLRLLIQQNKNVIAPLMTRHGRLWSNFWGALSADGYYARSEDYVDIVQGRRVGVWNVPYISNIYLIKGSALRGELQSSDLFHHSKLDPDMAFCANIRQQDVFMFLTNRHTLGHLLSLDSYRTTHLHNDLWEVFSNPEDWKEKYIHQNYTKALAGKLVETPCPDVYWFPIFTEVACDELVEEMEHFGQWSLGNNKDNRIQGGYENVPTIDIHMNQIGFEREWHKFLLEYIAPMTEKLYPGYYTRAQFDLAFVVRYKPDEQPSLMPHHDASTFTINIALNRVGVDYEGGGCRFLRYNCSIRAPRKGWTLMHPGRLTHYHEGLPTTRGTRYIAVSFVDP
Sequence of CLTC (human) (Q00610 2-1675 limits assumed): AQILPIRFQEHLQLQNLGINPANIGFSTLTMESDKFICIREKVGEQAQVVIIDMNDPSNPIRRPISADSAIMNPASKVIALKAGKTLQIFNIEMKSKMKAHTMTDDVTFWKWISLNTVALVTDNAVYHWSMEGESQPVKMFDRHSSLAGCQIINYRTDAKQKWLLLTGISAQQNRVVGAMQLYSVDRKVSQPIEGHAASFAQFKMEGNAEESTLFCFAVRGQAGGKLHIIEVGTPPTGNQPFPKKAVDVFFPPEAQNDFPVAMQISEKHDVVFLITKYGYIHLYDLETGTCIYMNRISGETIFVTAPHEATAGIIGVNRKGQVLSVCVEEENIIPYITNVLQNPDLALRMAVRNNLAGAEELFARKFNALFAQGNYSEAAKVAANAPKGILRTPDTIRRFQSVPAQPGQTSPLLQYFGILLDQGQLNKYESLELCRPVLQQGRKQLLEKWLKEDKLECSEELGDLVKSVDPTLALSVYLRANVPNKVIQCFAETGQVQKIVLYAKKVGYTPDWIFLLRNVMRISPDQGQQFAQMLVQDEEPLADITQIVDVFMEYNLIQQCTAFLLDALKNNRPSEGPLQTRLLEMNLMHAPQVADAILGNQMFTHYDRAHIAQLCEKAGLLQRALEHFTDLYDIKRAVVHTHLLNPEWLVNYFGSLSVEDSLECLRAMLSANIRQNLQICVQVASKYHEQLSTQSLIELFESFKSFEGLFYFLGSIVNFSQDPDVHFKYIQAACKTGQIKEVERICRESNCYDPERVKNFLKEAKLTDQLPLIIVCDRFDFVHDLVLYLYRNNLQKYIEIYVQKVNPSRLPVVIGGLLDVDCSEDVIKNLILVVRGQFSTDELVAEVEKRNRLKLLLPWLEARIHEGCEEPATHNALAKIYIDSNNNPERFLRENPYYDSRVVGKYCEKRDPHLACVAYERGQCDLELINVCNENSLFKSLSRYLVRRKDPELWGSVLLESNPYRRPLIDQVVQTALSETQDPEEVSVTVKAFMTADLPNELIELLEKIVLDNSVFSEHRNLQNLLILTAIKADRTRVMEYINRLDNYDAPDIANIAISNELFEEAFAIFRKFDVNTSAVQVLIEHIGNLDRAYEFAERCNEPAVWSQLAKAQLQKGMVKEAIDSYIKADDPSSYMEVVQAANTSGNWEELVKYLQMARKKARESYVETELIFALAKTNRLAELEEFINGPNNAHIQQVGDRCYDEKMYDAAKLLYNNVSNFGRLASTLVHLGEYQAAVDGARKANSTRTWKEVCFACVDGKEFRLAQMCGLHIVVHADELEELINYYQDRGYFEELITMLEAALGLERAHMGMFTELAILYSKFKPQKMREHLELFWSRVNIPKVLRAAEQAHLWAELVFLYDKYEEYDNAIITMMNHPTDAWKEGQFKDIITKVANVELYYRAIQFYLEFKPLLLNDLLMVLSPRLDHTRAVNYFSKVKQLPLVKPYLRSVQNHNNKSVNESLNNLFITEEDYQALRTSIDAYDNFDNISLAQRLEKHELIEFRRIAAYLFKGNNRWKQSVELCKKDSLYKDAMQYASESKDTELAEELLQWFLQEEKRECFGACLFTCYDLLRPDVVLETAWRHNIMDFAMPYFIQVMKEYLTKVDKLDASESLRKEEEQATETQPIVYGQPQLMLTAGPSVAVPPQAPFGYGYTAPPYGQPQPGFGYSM
Sequence of SBSN (human) (Q6UWP8 26-590 limits assumed): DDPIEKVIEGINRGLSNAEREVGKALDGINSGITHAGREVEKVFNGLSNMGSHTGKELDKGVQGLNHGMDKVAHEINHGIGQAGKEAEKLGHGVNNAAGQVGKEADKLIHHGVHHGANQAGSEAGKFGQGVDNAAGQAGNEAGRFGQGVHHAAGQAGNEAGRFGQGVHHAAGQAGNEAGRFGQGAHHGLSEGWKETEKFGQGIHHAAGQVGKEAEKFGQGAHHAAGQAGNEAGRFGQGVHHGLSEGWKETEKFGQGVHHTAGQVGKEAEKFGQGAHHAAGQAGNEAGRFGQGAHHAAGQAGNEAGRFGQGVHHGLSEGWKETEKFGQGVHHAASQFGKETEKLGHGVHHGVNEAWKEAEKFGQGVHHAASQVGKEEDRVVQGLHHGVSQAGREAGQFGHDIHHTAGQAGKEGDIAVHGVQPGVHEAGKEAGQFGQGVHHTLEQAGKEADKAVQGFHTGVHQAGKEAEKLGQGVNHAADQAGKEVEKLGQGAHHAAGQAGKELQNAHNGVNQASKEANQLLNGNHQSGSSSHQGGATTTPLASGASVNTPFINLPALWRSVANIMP
Sequence of PSMB5 (human) (P28074 60-263 limits assumed): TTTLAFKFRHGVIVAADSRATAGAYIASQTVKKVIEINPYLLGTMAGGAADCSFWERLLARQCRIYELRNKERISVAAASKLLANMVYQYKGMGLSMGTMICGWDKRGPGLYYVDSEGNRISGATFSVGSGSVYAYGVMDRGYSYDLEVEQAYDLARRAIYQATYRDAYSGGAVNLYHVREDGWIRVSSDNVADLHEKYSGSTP

With “IgG control (Millipore Sigma 12-371) (antibody)” the co-IP/MS count, N-term IgG [1] was 2, the co-IP/MS count, N-term IgG [2] was 6 and the co-IP/MS count, N-term IgG [3] was 0. The co-IP/MS count, N-term IgG [4] was 8, the co-IP/MS count, N-term IgG [5] was 0 and the co-IP/MS count, N-term IgG [6] was 23. For the same substance, the co-IP/MS count, N-term IgG [7] was 19, the co-IP/MS count, N-term IgG [8] was 0 and the co-IP/MS count, N-term IgG [9] was 39. It also gave a co-IP/MS count, N-term IgG [10] of 0, a co-IP/MS count, N-term IgG [11] of 2 and a co-IP/MS count, N-term IgG [12] of 0. The co-IP/MS count, N-term IgG [13] was 0, the co-IP/MS count, N-term IgG [14] was 3 and the co-IP/MS count, N-term IgG [15] was 0. It also gave a co-IP/MS count, N-term IgG [16] of 0, a co-IP/MS count, N-term IgG [17] of 11 and a co-IP/MS count, N-term IgG [18] of 0. For the same substance, the co-IP/MS count, N-term IgG [19] was 5, the co-IP/MS count, N-term IgG [20] was 2 and the co-IP/MS count, N-term IgG [21] was 4. The co-IP/MS count, N-term IgG [22] was 0, the co-IP/MS count, N-term IgG [23] was 5 and the co-IP/MS count, N-term IgG [24] was 4. For the same substance, the co-IP/MS count, N-term IgG [25] was 4, the co-IP/MS count, N-term IgG [26] was 4 and the co-IP/MS count, N-term IgG [27] was 0. It also gave a co-IP/MS count, N-term IgG [28] of 25, a co-IP/MS count, N-term IgG [29] of 0 and a co-IP/MS count, N-term IgG [30] of 3. It also gave a co-IP/MS count, N-term IgG [31] of 9, a co-IP/MS count, N-term IgG [32] of 0 and a co-IP/MS count, N-term IgG [33] of 0. For the same substance, the co-IP/MS count, N-term IgG [34] was 0, the co-IP/MS count, N-term IgG [35] was 87 and the co-IP/MS count, N-term IgG [36] was 0. The co-IP/MS count, N-term IgG [37] was 0.
